From US10273464B2, “Methods and isolated protein compositions for isoprenoid diphosphate synthesis” (The Salk Institute for Biological Studies, priority 2009, dated 2019)
Positions count from the first letter of the chain named. In names and notes the source's numbering stands. Entries after “also recorded” stand apart in the source; their conditions may differ. Where two headings read alike, the source gives them in different places.

How the values were obtained:
[1] = pyruvate kinase-lactate dehydrogenase coupled assay, IP as variable substrate; assay type: biochemical; conditions: 25° C.; for kinase activity (rate of IP turnover): relevant concentrations of IP and enzyme
Protocol: All specific activity and kinetic measurements were performed using the pyruvate kinase-lactate dehydrogenase coupled assay with reference to a previously established protocol (Lindsley, 2001, Methods Mol. Biol. 95:57-64.). The reaction includes the following components in a 200 ul volume: 7 U pyruvate kinase, 10 U lactate dehydrogenase, 2 mM phosphoenolpyruvate, 0.16 mM NADH, 50 mM TRIS HCl pH 8.0, 100 mM KCl, 8 mM MgCl2, 4 mM ATP, and variable concentrations of IP (purchased from Larodan Fine Chemicals). The reaction was initiated by the addition of IPK (0.15 ug) and was followed by observing the depletion of NADH at 340 nm over time, expressed as Δ(AU340)/Δt, which was converted to Δ(ADP)/Δt. These values were then plotted against substrate concentration in GraphPad Prism® (Version 5.01 for Windows) to compute the kinetic parameters kcat and Km using the “nonlinear regression enzyme kinetic analysis” option.
From the results discussed above, it is evident that His60 from IPK plays an important role in both substrate and product binding. This is accomplished through a hydrogen bonding interaction between the Nε2 atom of His60 and a non-bridging O atom from the terminal phosphate group on either the substrate (IP) or the product (IPP). From all crystal structure data, it is apparent that the Nε2 group of His60 (and not the Nδ1 group) is relevant for binding and may therefore be reasonably assumed by one skilled in the art to be relevant for IPK-mediated catalysis. To confirm this hypothesis, His60 was mutated to Ala, Asn, and Gln. The Asn and Gln mutations were made based on the rationale that their side chains contain N atoms that are isosteric with the Nδ1 and Nε2 groups on His, respectively.

[2] = coupled IPK / 5-epi-aristolochene synthase (TEAS) vial assay, GC-MS, FP to FPP conversion; assay type: biochemical; conditions: 10 μM IPK, 150 μM FP, ATP, Mg, pH 8.0, 20 minutes at 55° C., 5-epi-aristolochene quantified by GC-MS
Protocol: FIG. 10: Assays of IPK and mutants. The single mutants of IPK, I86A and I146A, and the double mutant I86A/I146A, were tested with the C15-substrate farnesyl monophosphate (FP) using a coupled assay with a terpene cyclase (TEAS). In the first step of the reaction, IPK was incubated with magnesium, ATP, and FP at pH 8.0 for 20 minutes at 55° C. (assuming sufficient time for conversion of FP to FPP). In the second step of the reaction, a small sample of the first reaction was added to a glass vial containing magnesium and a sesquiterpene cyclase known as tobacco 5-epi-aristolochene synthase (TEAS), and this reaction was incubated overnight at 25° C. Assuming complete conversion of FPP to 5-epi-aristolochene, the reaction was extracted with ethyl acetate and the amount of 5-epi-aristolochene was quantified by GC-MS analysis.
FIGS. 11A-11B: Farnesyl phosphate (FP) phosphorylation by IPK chain length mutants. FIG. 11A: FIG. 11A depicts the coupled IPK-sesquiterpene synthase reaction used to test for FP transphosphorylation. FIG. 11B: FIG. 11B depicts comparative bar graph showing several IPK mutants qualitatively tested for their ability to convert FP to FPP, expressed as a percentage of maximal production of 5-epi-aristolocene produced from IPK-generated FPP using wild-type IPK and identical concentrations of wild-type tobacco 5-epi-aristolochene synthase incubated for equivalent lengths of time.
IPK mutants (at a final concentration of 10 μM) were incubated in a 50 μl reaction with 150 μM farnesyl monophosphate (FP), 7 mM MgCl2, 4 mM ATP, and 50 mM TRIS.HCl pH 8.0 for 20 minutes at 55° C. 10 μl of this reaction was then added to a 500 μl reaction containing 45 ug of the terpene cyclase 5-epi-aristolochene synthase (TEAS) and 10 mM MgCl2 in a 3-component buffer system (25 mM MES, 50 mM TRIS.HCl, 25 mM CAPS) at pH 7.0. A method known as the “vial assay” (O'Maille et al., 2004, Anal. Biochem. 335:210-217) was employed by overlaying this aqueous layer with 500 μl of ethyl acetate, incubating overnight at 25° C., and vortexing to extract the terpene product into the organic layer prior to quantitative GC-MS analysis. Both negative and positive control reactions were conducted as follows. For the negative control, no IPK was added to the first reaction. For the positive control, […] of FPP (equivalent to the amount that would be present assuming complete FP to FPP turnover) was added to the TEAS reaction.
Similar studies were conducted using FPP modeled into the active site of IPK. The reaction of IPK on FP to form FPP is depicted in FIG. 10. The I146A I86A single-residue mutations, and the […] double mutation were tested with the C15-substrate farnesyl monophosphate (FP) using a coupled assay with a terpene cyclase (TEAS). In the first step of the reaction, IPK was incubated with magnesium, ATP, and FP at pH 8.0 for 20 minutes at 55° C., which was judged as sufficient time for conversion of FP to FPP. In the second step of the reaction, a small sample of the first reaction was added to a glass vial containing magnesium and a sesquiterpene cyclase known as tobacco 5-epi-aristolochene synthase (TEAS), and this reaction was incubated overnight at 25° C. Assuming complete conversion of FPP to 5-epi-aristolochene, the reaction was extracted with ethyl acetate and the amount of 5-epi-aristolochene was quantitated by GC-MS analysis.

[3] = pyruvate kinase-lactate dehydrogenase coupled assay, Km for ATP; assay type: biochemical; conditions: 25° C.
Protocol: All specific activity and kinetic measurements were performed using the pyruvate kinase-lactate dehydrogenase coupled assay with reference to a previously established protocol (Lindsley, 2001, Methods Mol. Biol. 95:57-64.). […] The reaction was initiated by the addition of IPK (0.15 ug) and was followed by observing the depletion of NADH at 340 nm over time, expressed as Δ(AU340)/Δt, which was converted to Δ(ADP)/Δt. These values were then plotted against substrate concentration in GraphPad Prism® (Version 5.01 for Windows) to compute the kinetic parameters kcat and Km using the “nonlinear regression enzyme kinetic analysis” option.

[4] = read-out: Km value for UMP; cited from earlier work
[5] = read-out: Km value for ATP; cited from earlier work
[6] = measured in one instance (other than Table 4)

B1: IPK-Mjannaschii H60A: M. jannaschii IPK with His60 mutated to Ala (protein, UniProt Q60352 1-260, looked up, variant H60A)
Isopentenyl phosphate kinase: MLTILKLGGSILSDKNVPYSIKWDNLERIAMEIKNALDYYKNQNKEIKLILVHGGGAFGAPVAKKYLKIEDGKKIFINMEKGFWEIQRAMRRFNNIIIDTLQSYDIPAVSIQPSSFVVFGDKLIFDTSAIKEMLKRNLVPVIHGDIVIDDKNGYRIISGDDIVPYLANELKADLILYATDVDGVLIDNKPIKRIDKNNIYKILNYLSGSNSIDVTGGMKYKIDMIRKNKCRGFVFNGNKANNIYKALLGEVEGTEIDFSE
- kinase activity (rate of IP turnover) [1]: immeasurable; also recorded: no measurable activity

B2: IPK-Mjannaschii H60N: M. jannaschii IPK with His60 mutated to Asn (protein, UniProt Q60352 1-260, looked up, variant H60N)
Isopentenyl phosphate kinase: B1 Isopentenyl phosphate kinase with A60N
- kinase activity (rate of IP turnover) [1]: immeasurable; also recorded: no measurable activity

B3: I86A/I146A: IPK double mutant I86A and I146A (protein)
chain: B1 Isopentenyl phosphate kinase with A60H, I86A, I146A, D223E
- conversion (phosphorylation) of FP to FPP [2]: significant percentage of substrate
- conversion (phosphorylation) of FP to FPP ([2]; listed as I146A/I146A): significant percentage of FP

B4: I146A: IPK single mutant, residue 146 Ile to Ala (protein, listed as Methanocaldococcus jannaschii)
chain: B1 Isopentenyl phosphate kinase with A60H, I146A, D223E
- conversion (phosphorylation) of FP to FPP [2]: significant percentage of FP; also recorded: significant percentage of substrate

B5: IPK-Mjannaschii H60Q: M. jannaschii IPK with His60 mutated to Gln (protein, UniProt Q60352 1-260, looked up, variant H60Q)
Isopentenyl phosphate kinase: B1 Isopentenyl phosphate kinase with A60Q
- Km [3]: 559 µM
- Km [1]: 34.5 µM
- kcat [1]: 0.040 ± 0.002 s⁻¹
- kinase activity (rate of IP turnover) [1]: able to turn over a measurable amount of IP
- Km for IP, fold larger than wild type ([1]; versus wild type IPK): 8 fold
- kcat, fold slower than wild type ([1]; versus wild type IPK): ~40 fold
- kcat ([1]; listed as H60Q): 0.04 s⁻¹

B6: F83A/I86A/I156A: IPK triple mutant F83A, I86A, I156A (protein)
chain: B1 Isopentenyl phosphate kinase with A60H, F83A, I86A, I156A, D223E
- conversion (phosphorylation) of FP to FPP [2]: greatest turnover

B7: I156V: IPK mutant, residue 156 Ile to Val (protein, listed as Methanocaldococcus jannaschii)
chain: B1 Isopentenyl phosphate kinase with A60H, I156V, D223E
- conversion (phosphorylation) of FP to FPP [2]: decreased activity

B8: IPK-Mjannaschii: isopentenyl phosphate kinase from Methanocaldococcus jannaschii, SEQ ID NO:1, wild type (protein, listed as Methanocaldococcus jannaschii)
chain: B1 Isopentenyl phosphate kinase with A60H, D223E
- Km [3]: 198 µM
- conversion (phosphorylation) of FP to FPP [2]: significantly less phosphorylation
- Km [1]: 4.3 ± 0.6 µM
- kcat [1]: 1.46 ± 0.03 s⁻¹

B9: I146V: IPK mutant, residue 146 Ile to Val (protein, listed as Methanocaldococcus jannaschii)
chain: B1 Isopentenyl phosphate kinase with A60H, I146V, D223E
- conversion (phosphorylation) of FP to FPP [2]: decreased activity

B10: I86A: IPK single mutant, residue 86 Ile to Ala (protein, listed as Methanocaldococcus jannaschii)
chain: B1 Isopentenyl phosphate kinase with A60H, I86A, D223E
- conversion (phosphorylation) of FP to FPP [2]: significant percentage of FP; also recorded: significant percentage of substrate

B11: UMPK from Sulfolobus solfataricus: uridine monophosphate kinase from Sulfolobus solfataricus, literature comparison (Jensen et al., 2007) (protein, UniProt Q97ZE2 1-227, looked up)
Uridylate kinase: MMNIILKISGKFFDEDNVDNLIVLRQSIKELADNGFRVGIVTGGGSTARRYIKLAREIGIGEAYLDLLGIWASRLNAYLVMFSLQDLAYMHVPQSLEEFIQDWSHGKVVVTGGFQPGQSTAAVAALVAEASSSKTLVVATNVDGVYEKDPRIYADVKLIPHLTTQDLRKILEGSQSVQAGTYELLDPLAIKIVERSKIRVIVMNYRKLNRIIDILKGEEVSSIIEPV
- Km [4]: 14 µM
- Km [5]: 81 µM

B12: IPK-Mmaripaludis: isopentenyl phosphate kinase homolog from Methanococcus maripaludis, SEQ ID NO:8 (protein, listed as Methanococcus maripaludis)
chain: MFAILKLGGSILCDKNVPYSINWENLENIAIEIKEAIEYYSSKNEDFKLIIVHGGGSFGHPVAKKYLKNEKFEDMGKGYWEIQKAMRKFNNIVIEELQNFEPAVSIQASSFITFNHKSNLHFDTNAIEKMLDKGLIPVIHGDIVIDEKTDNFKIFSGDHALPFLSKKLNPDLSLHASDVDGVWDSEFKIIENINSKNIEDVLKSLKPSNKEDVTGGMHLKVMECYNLGIETIIFNGNKKRNIYNALLKNVKGTLIN
- Km [3, 6]: 96 ± 6 µM
- Km [1]: 21.4 ± 4.2 µM
- kcat [1]: 13.1 ± 0.5 s⁻¹
- Km [1, 6]: 16.1 µM
